Source: patent US20180273614A1 (GALAPAGOS, published 2018)

T1: murine IL-17C (mouse, UniProt Q8K4C5 17-194, limits assumed)
T1 construct: Endogenous IL-17C in paraffin sections of ear skin of BALB/c mice (IHC); also called IL-17C (mouse skin)
T1 sequence (looked up): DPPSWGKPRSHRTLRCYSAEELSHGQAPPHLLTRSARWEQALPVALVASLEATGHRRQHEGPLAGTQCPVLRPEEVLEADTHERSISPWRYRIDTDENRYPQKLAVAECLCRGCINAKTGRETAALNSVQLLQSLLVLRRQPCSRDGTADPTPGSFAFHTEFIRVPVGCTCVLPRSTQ

T2: human IL-17C (human, UniProt Q9P0M4 19-197)
T2 construct: Endogenous IL-17C in paraffin sections of human skin biopsies (IHC); The background calls IL-17C a secreted homodimer; also called interleukin 17C
T2 sequence: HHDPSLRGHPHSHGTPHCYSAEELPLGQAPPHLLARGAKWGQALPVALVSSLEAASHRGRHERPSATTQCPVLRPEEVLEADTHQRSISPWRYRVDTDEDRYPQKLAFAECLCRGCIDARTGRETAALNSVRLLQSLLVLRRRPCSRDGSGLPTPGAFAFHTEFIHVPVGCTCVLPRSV


Key:
murine IL-17C = target: T1, murine IL-17C; assay: IHC on paraffin sections of mouse ear skin (MC903 model), biotinylated antibody
Protocol: (§1) 4 μm-thick slices from paraffin-embedded skin biopsies from healthy subjects and subjects with atopic dermatitis were analyzed by IHC. Staining for IL-17C expression was performed with biotinylated MOR22420 (and MOR03207 isotype control antibody). In brief, sections were deparaffinised, rehydrated and unmasked by heat epitope antigen retrieval. Endogenous peroxidase was blocked in BLOXALL™ Blocking Solution (Vector Laboratories) and non-specific binding was blocked with 2.5% Horse Serum Blocking Solution (Vector Laboratories). The primary antibodies were incubated for one hour at room temperature. Binding of MOR22420 biotinylated antibody and MOR03207 biotinylated antibody was detected by incubation with Avidin Biotin Peroxidase Complex (Vector Laboratories). The signal was developed using the peroxidase substrate diaminobenzidine tetrahydrochloride (Sigma). Mayer's hematoxylin (BDH) was used for counterstaining before dehydration and mounting of slides.
At sacrifice, samples form ear skin were collected and fixed in 4% formaldehyde before embedding in paraffin. […] Five fields per ear (high power field ×20) covering the whole ear from top to bottom were measured, and the 5 values were averaged per ear and per mice (left/right ear). […]

human IL-17C = target: T2, human IL-17C; assay: IHC on paraffin sections of human skin (healthy and atopic dermatitis), biotinylated antibody, avidin-biotin-peroxidase detection
Protocol: as §1

binding result (murine IL-17C)	binding result (human IL-17C)	Binder
binds	–	MOR12743 (antibody, V domains shown, Said to be disclosed and characterized in WO 2013/057241; also called anti-IL-17C biotinylated MOR12743 antibody; anti-IL-17C MORI 2743 antibody) VH: QVQLVQSGAEVKKPGASVKVSCKASGYTFTSNFIHWVRQAPGQGLEWMGWISPYNGDTNYAQKFQGRVTMTRDTSISTAYMELSRLRSEDTAVYYCARESVYYGSDYGYNGMDIWGQGTLVTVSS VL: DIELTQPPSVSVSPGQTASITCSGDNLGEEYVSWYQQKPGQAPVLVIYDDTKRPSGIPERFSGSNSGNTATLTISGTQAEDEADYYCASWDLWSVEVFGGGTKLTVLG
–	binds	MOR22420 (antibody, V domains shown, also called biotinylated MOR22420; MOR22420 antibody) VH: QVQLVQSGAEVKKPGSSVKVSCKASGGTFSSYAISWVRQAPGQGLEWMGTIDPFFGKTYYAQKFQGRVTITADESTSTAYMELSSLRSEDTAVYYCARDVSSISYYFHEYYSDRFDYWGQGTLVTVSS VL: DIALTQPASVSGSPGQSITISCTGTSSDVGGYEYVNWYQQHPGKAPKLMIYDDSYRPSGVSNRFSGSKSGNTASLTISGLQAEDEADYYCQSTDPHSTVVFGGGTKLTVLG
